Results as given in article PMC4933460, “Extracellular Regulation of Bone Morphogenetic Protein Activity by the Microfibril Component Fibrillin-1*” (The Journal of Biological Chemistry, 2016).
One block for each binder: values may come before it.

B8: BMP-7 prodomain, full-length PD (residues 30-292), E. coli (domain or fragment)
chain: not shown
notes: also called full-length BMP-7 PD; source: E. coli, purified by chelating chromatography; not shown: His6, C-terminal, kept

Columns and labels:
[1] = target: B8; experiment: SPR; PD/PD interaction: 500-800 RU of full-length PD (30-292) or truncated variants (48-292, 55-292) immobilised, 0-320 nM PD variants injected in HBS-EP with 1 M urea; apparent KD; details: both partners purified
[2] = target: T1, rF87, N-terminal fragment of fibrillin-1 (Ser19-Ile329) (UniProt P35555 19-329); experiment: SPR; PD variants immobilised at 500-800 RU, rF87 injected at 0-80 nM in HBS-EP (no urea); apparent KD; details: both partners purified
T1 construct: The sentence of the methods may also give rF87 the tandem C-terminal Strep-tag; it cannot be told; also called fibrillin-1 (rF87); N-terminal end of fibrillin-1
T1 sequence (P35555 19-329): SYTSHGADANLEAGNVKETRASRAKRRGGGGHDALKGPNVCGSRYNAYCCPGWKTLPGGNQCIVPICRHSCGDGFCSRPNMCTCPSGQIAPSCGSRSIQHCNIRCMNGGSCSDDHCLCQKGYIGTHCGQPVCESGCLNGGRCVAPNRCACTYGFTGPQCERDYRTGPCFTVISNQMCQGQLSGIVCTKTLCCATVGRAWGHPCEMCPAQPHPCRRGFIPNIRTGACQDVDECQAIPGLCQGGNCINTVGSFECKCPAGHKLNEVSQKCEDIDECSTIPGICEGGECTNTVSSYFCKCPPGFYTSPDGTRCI

BMP-7 PD (30-292) P68A = target: T2, BMP-7 PD (30-292) P68A (UniProt P18075 30-292, P68A); experiment: ELISA; sandwich ELISA of reconstitution in solution: PD variants dialysed with the GF in TBS with 1 M urea overnight, captured by coated monoclonal anti-His6 antibody (C-terminal His6 of the PD), GF detected with an anti-GF antibody; details: both partners purified
T2 construct: source: E. coli, purified by chelating chromatography; not shown: His6, C-terminal, kept

BMP-7 PD (30-292) R67A = target: T3, BMP-7 PD (30-292) R67A (UniProt P18075 30-292, R67A); experiment: as above; details: both partners purified
T3 construct: source: E. coli, purified by chelating chromatography; not shown: His6, C-terminal, kept

BMP-7 PD (30-292) H66A = target: T4, BMP-7 PD (30-292) H66A (UniProt P18075 30-292, H66A); experiment: as above; details: both partners purified
T4 construct: source: E. coli, purified by chelating chromatography; not shown: His6, C-terminal, kept

[3] = target: B8; experiment: SPR; E. coli-derived full-length PD (30-292) immobilised, GF flown over in HBS-EP with 1 M urea; apparent KD = kd/ka; details: both partners purified
[4] = target: T5, BMP-7 PD truncation variant 55-292 (UniProt P18075 55-292); experiment: SPR; BIAcore 2000; BMP-7 GF covalently coupled to a CM5 chip (500 RU), PD variants flown over in HBS-EP pH 7.4 with 1 M urea; 1:1 model with mass transfer; apparent KD = kd/ka; details: both partners purified
T5 construct: source: E. coli, purified by chelating chromatography

[5] = target: T6, BMP-7 PD truncation variant 48-292 (UniProt P18075 48-292); experiment: as above; details: both partners purified
T6 construct: source: E. coli, purified by chelating chromatography; not shown: His6, C-terminal, kept

[6] = target: T7, BMP-7 PD truncation variant 65-292 (UniProt P18075 65-292); experiment: as above; details: both partners purified
T7 construct: source: E. coli, purified by chelating chromatography

[7] = target: B8; experiment: as above; details: both partners purified
[8] = target: B8; experiment: SPR; 1,000 RU of BMP-7 PD immobilised, 0-80 nM GF injected in sodium acetate buffer pH 4.5, 0.15 M NaCl, 3 mM EDTA, 0.005% P20; apparent KD; details: both partners purified
[9] = target: the molecule itself; experiment: velocity sedimentation in sucrose gradients; 10 μg BMP-7 complex dialysed against TBS with 1 M urea, 5-20% sucrose gradient, 28 fractions, Western blots for PD and GF
[10] = target: the molecule itself; experiment: SPR; PD/PD interaction: 500-800 RU of full-length PD (30-292) or truncated variants (48-292, 55-292) immobilised, 0-320 nM PD variants injected in HBS-EP with 1 M urea; apparent KD

B3: BMP-7 PD variant 30-217 (domain or fragment)
chain: not shown
notes: BMP-7 prodomain, residues 30-217 of the BMP-7 precursor; source: E. coli, purified by chelating chromatography
- Kd [2]: 27 ± 6 nM

B4: BMP-7 PD truncation variant 74-292 (domain or fragment)
chain: not shown
notes: source: E. coli, purified by chelating chromatography
- Kd [2]: 26 ± 4 nM

B5: BMP-7 PD variant 30-184 (domain or fragment)
chain: not shown
notes: BMP-7 prodomain, residues 30-184 of the BMP-7 precursor; source: E. coli, purified by chelating chromatography
- Kd [2]: 38 ± 3 nM

B7: BMP-7 prodomain of the HEK293 EBNA cell-expressed BMP-7 complex (domain or fragment)
chain: not shown
notes: Glycosylated (carbohydrate chains absent in the E. coli preparation); also called PD; BMP-7 PD; source: stably transfected HEK293 EBNA cells, purified as part of the BMP-7 complex (chelating chromatography, gel filtration)
- stoichiometry N [9]: 2

Binder: B8
- Kd [2]: 32 ± 7 nM
- Kd [10]: 3 ± 0.01 nM

The next lines start with the values.

- Kd [1]: 26.8 ± 3.1 nM
B1: BMP-7 PD variant 218-292 (domain or fragment, UniProt P18075 218-292, looked up)
chain: ASEEGWLVFDITATSNHWVVNPRHNLGLQLSVETLDGQSINPKLAGLIGRHGPQNKQPFMVAFFKATEVHFRSIR
notes: also called Ala218-Arg292; source: E. coli, purified by chelating chromatography

- Kd [1]: 39.1 ± 3.3 nM
B2: BMP-7 PD variant 241-292 (domain or fragment, UniProt P18075 241-292, looked up)
chain: HNLGLQLSVETLDGQSINPKLAGLIGRHGPQNKQPFMVAFFKATEVHFRSIR
notes: as for B4

- percent inhibition of complex formation (BMP-7 PD (30-292) P68A): ~65%
- percent inhibition of complex formation (BMP-7 PD (30-292) R67A): ~65%
- percent inhibition of complex formation (BMP-7 PD (30-292) H66A): 30%
- Kd [3]: 31.5 ± 0.2 nM
- Kd [4]: 15 ± 3 nM
- Kd [5]: 19 ± 1 nM
- Kd [6]: 8 ± 1 nM
- Kd [7]: 19.4 nM
- Kd [8]: 20 ± 0.1 nM
B6: BMP-7 growth factor (GF) dimer (ligand, UniProt P18075 293-431, looked up)
chain: STGSKQRSQNRSKTPKNQEALRMANVAENSSSDQRQACKKHELYVSFRDLGWQDWIIAPEGYAAYYCEGECAFPLNSYMNATNHAIVQTLVHFINPETVPKPCCAPTQLNAISVLYFDDSSNVILKKYRNMVVRACGCH
notes: The same GF is a component of the BMP-7 complex m23; also called BMP-7 GF; mature growth factor; source: stably transfected HEK293 EBNA cells; separated from the purified BMP-7 complex in 8 M urea, 1 M NaCl by chelating chromatography (flow-through)
